{"source": "patent US20020120098A1", "about": "“Enhanced stimulation of erythropoiesis” (priority 1996, published 2002)", "key": {"[1]": {"test_system": "CFU-GM", "experiment": "Colony formation assay (CFA), cord blood LDMNC: CFU-GM colonies", "type": "cell-based, human", "protocol": "(§1) This technique, referred to as the colony formation assay (CFA), is the most widely used biological assay to identify and enumerate erythroid progenitors present in hematopoietic tissue such as blood and bone marrow. Cell populations containing erythroid progenitors are plated in semi-solid suspensions of methyl cellulose, agar, low melting agarose or related substances in nutrient culture medium containing 1-3 U/ml Epo and 10 ng/ml IL-3 to specifically stimulate erythroid progenitors. Plates are incubated at 37° C. for 14 days during which time the erythroid progenitors form characteristic hemoglobinized (red) colonies. Two distinct but related erythroid progenitors can be distinguished based on colony size and morphology: BFU-E, the most primitive recognizable erythroid progenitor forms large multilobular colonies whereas the more mature CFU-E forms smaller spherical colonies.\n(§2) Adult hemoglobin was purified according to U.S Pat. Nos. 5,439,591 and 5,545,328 to obtain HAo and HEMOLINK™ was prepared from HAo according to U.S. Pat. No. 5,532,352. Human umbilical cord blood intended for discard was collected from the umbilical vein of placentas immediately postpartum into 10 ml vacutainer tubes containing 143 USP units/ml sodium heparin. Low density mononuclear cells were separated from red blood cells by centrifugation over a 1.077 g/ml density gradient Cells removed from the plasma/density gradient interface were incubated overnight in a tissue culture flask with 10 ml cell culture medium containing 10% fetal bovine serum, and non-adherent LDMNC were further purified with an additional density gradient step. The LDMNC were then plated into colony formation assays (CFA) on the second day of isolation. In the CFA, LDMNC were plated at a density of 1×10^5 cells/ml in Iscoves modified Dulbeccos cell culture medium containing 0.8% methyl-cellulose, 30% fetal bovine serum, 1% bovine serum albumin, 0.1 mM 2-mercaptoethanol and 2 mM L-glutamine. Unless indicated otherwise, under standard CFA conditions 2 U/ml Epo and 10 ng/ml IL-3 are added to the formulation to stimulate hematopoietic progenitor growth, specifically BFU-E, CFU-E and CFU-GM.\n(§3) Each condition was tested in duplicate in from 2-18 independent experiments. Cultures were maintained in a humidified incubator at 37° C., 5% CO2 and ambient oxygen tensions. The number of hematopoietic progenitors was scored between days 13-15 by counting the number and types of colonies present.\n(§4) The effect of the various additives on the inhibitory effect of succinylacetone (SA), a heme synthesis inhibitor, on erythroid progenitors was determined. Primary LDMNC were cultured in methyl cellulose as described in Example 1. Cord blood LDMN were plated in the presence of 1.0 mg/ml HAo (15.6 μM; n=12) or HEMOLINK™ (15.6 μM; n=5), 100 μM hemin (n=12), 250 μM FeCl3 (n=11) or no addition (n=12), in absence or presence of 0.5 mM SA. Cultures were maintained in a humidified chamber at 37° C., 5% CO2, and ambient oxygen tensions for 14 days.\nHEMOLINK™ was evaluated for its ability to protect erythroid progenitor cells from toxicity due to ganciclovir. Cord blood LDMNC were set up in CFAs in the presence and absence of 1 mg/ml HEMOLINK™ plus 0, 0.1, 1.0, 10, 50 or 100 μM ganciclovir. Conditions for the CFA were similar to those described in Examples 1-4. […] All data are expressed relative to the number of colonies of control plates without HEMOLINK™. The hematopoietic progenitors display different sensitivities to ganciclovir. CFU-E were unaffected by 1 μM ganciclovir. However, a similar inhibition of BFU-E occurs at a 50-fold lower dose of ganciclovir (1 μM). […] Due to the difficulty in scoring CFU-GM in the presence of hemoglobin precipitates, as previously noted, they could not be accurately measured under these conditions. Thus, HEMOLINK™ reduces toxicity of ganciclovir to erythroid progenitors with the most pronounced effect on BFU-E cells."}, "[2]": {"test_system": "total erythroid progenitors (BFU-E+CFU-E)", "experiment": "Inhibition of succinylacetone (SA) toxicity to erythroid progenitors in CFA", "type": "cell-based, human", "settings": "0.5 mM SA only, no other addition", "protocol": "as §4\nResults are expressed as the number of total erythroid progenitors (BFU-E+CFU-E) present on plates treated with the various additives in the presence of SA relative to the number present on untreated plates (no SA or other addition). Significant differences in the presence of the respective additives compared to no addition (SA only; relative progenitor number=0.31) are as indicated: *p<0.001, **p<0.0001. Significant differences in the presence of the respective additives compared to no treatment (no SA; solid line at relative erythroid progenitor number=1.0) are as indicated: +p<0.05, ++p<0.001."}, "[3]": {"test_system": "BFU-E", "experiment": "Colony formation assay (CFA), cord blood LDMNC: BFU-E colonies", "type": "cell-based, human", "settings": "0.1-100 μM ganciclovir, absence of HEMOLINK", "protocol": "as §1, §2, §3\n(§5) Erythroid progenitor colony formation assays were conducted as described in Example 1 except that cultures were incubated at either ambient oxygen tensions (˜20% O2) or 5% O2. The reduced oxygen tension of 5% O2 approximates the physiological intravascular oxygen tension in mammals. The mean fold increase in cord blood BFU-E, CFU-E and CFU-GM progenitor number at 5% O2 produced by 1.0 mg/ml HAo (15.6 μM; n=11) or HEMOLINK™ (15.6 μM; n=6), 100 μM hemin (n=10), 250 μM FeCl3 (n=6) or no addition (n=17-18), is shown FIG. 2. Results are expressed relative to control cells treated only with respective vehicles and cultured at ambient oxygen tensions (˜20% O2; fold expansion=1.0; *p<0.05, **p<0.01).\n(§6) Erythroid progenitor colony formation assays were conducted as described in Example 1 except that cultures were initiated in the presence of Epo concentrations ranging from 0-2 U/ml. The mean fold increase in cord blood BFU-E, CFU-E and CFU-GM progenitor number produced by 1.0 mg/ml HAo (15.6 μM; n=9) or HEMOLINK™ (15.6 μM; n=6), 100 μM hemin (n=8), 250 μM FeCl3 (n=6), or no addition (n=9-10) in the presence of reduced Epo concentrations (0.2 U/ml) is shown in FIG. 3. Cultures were maintained at ambient oxygen tensions (˜20% O2) for 14 days. Results are expressed relative to control cells at 2 U/ml Epo treated only with the respective vehicles (solid line at fold expansion=1.0; *p<0.05, **p<0 01). Erythroid progenitor colonies were undetectable in the absence of Epo. […]"}, "[4]": {"test_system": "CFU-E", "experiment": "Colony formation assay (CFA), cord blood LDMNC: CFU-E colonies", "type": "cell-based, human", "settings": "absence of HEMOLINK", "protocol": "as §1, §2, §3, §5, §6"}, "[5]": {"experiment": "Half-life and blood level of Epo versus HEMOLINK after single i.v. administration", "type": "in vivo", "settings": "single i.v. 225 U/kg", "text": "Another strategy for the co-administration of Epo and hemoglobin is to reduce the number of Epo administrations required during therapy. Several Epo therapies follow the regimen of three weekly injections, either intravenously or subcutaneously. Multiple low dose or single high dose injections of Epo are required due to its relatively short half-life in vivo. […] HEMOLINK™ has a longer half-life. […] Longer half-life of the cross-linked hemoglobin can therefore compensate for Epo which may decline at a much faster rate. Thus, hemoglobin co-administered with Epo could prolong the effectiveness of Epo and therefore this combination therapy can be used to reduce the required frequency of Epo administrations."}, "[6]": {"settings": "cited from earlier work"}}, "note": "Where two headings read alike, the source gives them in different places.", "data": [{"molecule": "CC(=O)CC(=O)CCC(=O)O", "note": "[SA, Succinylacetone]", "values": [{"measurement": "effect of SA on CFU-GM proliferation", "setting": "[1]; 0.5 mM SA", "result": "did not inhibit CFU-GM proliferation"}, {"measurement": "relative erythroid progenitor number (BFU-E+CFU-E) vs untreated plates", "setting": "[2]", "result": 0.31}]}, {"molecule": "Nc1nc(O)c2ncn(COC(CO)CO)c2n1", "note": "[ganciclovir]", "values": [{"measurement": "inhibition of BFU-E by ganciclovir", "setting": "[3]", "result": "dose-dependent inhibition"}, {"measurement": "effect on CFU-E at 1 μM ganciclovir", "setting": "[4]; 1 μM ganciclovir", "result": "unaffected"}, {"measurement": "inhibition of CFU-E by ganciclovir", "setting": "[4]; 0.1-100 μM ganciclovir", "result": "dose-dependent inhibition"}, {"measurement": "dose at which CFU-GM are completely inhibited", "setting": "[1]; human, 14 days", "result": "greater than 10 μM"}]}, {"molecule": "Epo: recombinant human Epo; hormone that stimulates erythroid progenitors", "values": [{"measurement": "Epo level", "setting": "[5]; 0 hours post administration, assuming 85 ml/kg", "result": 2.7, "unit": "U/ml"}, {"measurement": "Epo level", "setting": "[5]; 21 hours post administration", "result": 0.33, "unit": "U/ml"}, {"measurement": "Epo level", "setting": "[5]; 42 hours post administration", "result": 0.041, "unit": "U/ml"}, {"measurement": "Epo level", "setting": "[5]; 63 hours post administration", "result": 0.0052, "unit": "U/ml"}, {"measurement": "Epo level", "setting": "[5]; 84 hours post administration", "result": 0.00065, "unit": "U/ml"}, {"measurement": "half-life in plasma", "setting": "[6]; after a subcutaneous injection", "result": "11.2 to 21.1", "unit": "h"}, {"measurement": "half-life in plasma", "setting": "[6]; after an intravenous injection", "result": "5.6 to 8.8", "unit": "h"}, {"measurement": "fraction of subcutaneous dose absorbed into the bloodstream", "setting": "[6]; subcutaneous", "result": "21.5-46.6%"}]}]}
